For this experiment, the target named is S3–4 single-chain TCR variant (scTv) of the A6 TCR. In words: SPR. A general note: In SPR one partner is held on a chip, and binding of the other changes the refractive index at the surface.

Experimental findings from PMC7642186 are described below.

pKd: −log10 of the molar value.

The substance “Tax P6A variant presented by HLA-A2 (from UniProt P61769) (peptide-MHC)” gave a pKd of 5.30.

Usually pKd stands for the negative decadic logarithm of the Kd, by convention in mol/L.
